PMC4871238 (Nature structural & molecular biology, 2015)

T1: human SBDS (Shwachman-Bodian-Diamond syndrome protein) (human, UniProt Q9Y3A5 1-250)
T1 sequence: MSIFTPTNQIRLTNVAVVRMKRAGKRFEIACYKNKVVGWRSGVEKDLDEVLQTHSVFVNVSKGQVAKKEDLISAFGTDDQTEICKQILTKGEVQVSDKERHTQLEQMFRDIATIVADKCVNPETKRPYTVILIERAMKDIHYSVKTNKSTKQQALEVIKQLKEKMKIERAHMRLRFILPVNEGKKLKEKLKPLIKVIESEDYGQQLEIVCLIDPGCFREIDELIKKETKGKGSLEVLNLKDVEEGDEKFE

B1: Dictyostelium discoideum eIF6 (eukaryotic initiation factor 6), endogenous (natural protein)
chain: not shown
B2: Dictyostelium discoideum ribosomal protein uL16 (L10) (natural protein, UniProt Q54J69 1-217, looked up)
chain: MGRRPARCYRYCKNKPYIKSRYCRGVPDAKIRIFDLGRKKASTDEFPLCVHLISLEKEQLSSEAIEAGRISCNKYISKTGGKDSFHMRVRVHPWHVLRINKMLSCAGADRLQTGMRGAFGKPMGTVARVNIGQIIFSIRTRDNMLANVVEALRRSSYKFPGRQKIVVSKKWGFTAYNREAYQKLKADGRLMNDGANVKVITNHGTLAQYAKDIAAAN
B3: Dictyostelium discoideum ribosomal protein eL24 (L24) (natural protein, UniProt Q54VN6 1-127, looked up)
chain: MKTSLCNYSEFKIYPARGMKFVRGDSKVFHFINTKVESLFFRKINPRDIRWSMVYRRIYKNTTTDVSAKKKARKTKKVERNIVGASLEVIQQKRAQKPEVKQAAAEQAKREIKEKKKAAAKKAAPKK
B4: Dictyostelium discoideum ribosomal protein uL11 (L12) (natural protein)
chain: not shown
B5: Dictyostelium discoideum ribosomal protein uL14 (L23) (natural protein)
chain: not shown

What was measured:
Assay in all cases: cryo-EM structure
[1] = target: Dictyostelium discoideum ribosomal protein uL3 (L3) (Dictyostelium discoideum, UniProt P34113 1-398)
Dictyostelium discoideum ribosomal protein uL3 (L3), sequence (P34113 whole entry): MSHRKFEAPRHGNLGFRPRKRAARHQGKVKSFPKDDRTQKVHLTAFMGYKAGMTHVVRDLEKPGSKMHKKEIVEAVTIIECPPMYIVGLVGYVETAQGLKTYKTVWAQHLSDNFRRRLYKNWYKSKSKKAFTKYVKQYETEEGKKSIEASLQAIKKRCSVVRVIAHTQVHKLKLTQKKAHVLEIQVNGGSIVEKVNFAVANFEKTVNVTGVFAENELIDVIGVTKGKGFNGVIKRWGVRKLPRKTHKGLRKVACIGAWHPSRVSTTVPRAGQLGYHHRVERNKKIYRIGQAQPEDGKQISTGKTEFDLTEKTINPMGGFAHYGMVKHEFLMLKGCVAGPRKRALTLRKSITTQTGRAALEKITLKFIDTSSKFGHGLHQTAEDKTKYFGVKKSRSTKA

[2] = target: T1, human SBDS (Shwachman-Bodian-Diamond …)
[3] = target: B1

**Q.** Does B1 bind [1]?
**A.** binds

**Q.** Does B2 bind [2]?
**A.** binds

**Q.** Does B3 bind [3]?
**A.** binds

**Q.** Does B4 bind [2]?
**A.** binds

**Q.** Does B5 bind [3]?
**A.** binds
